Target: T1, insulin receptor (InsR) expressed in ROS17/2.8 osteoblast cells (rat (by the cell line;  for …, UniProt P15127 27-1383, limits assumed)
T1 construct: The species is inferred from the cell line only; also called insulin receptor in ROS cells
Test: GST pull-down (substrate trapping) from ROS17/2.8 cell lysate, western blot
Protocol: Recombinant proteins bound to Sepharose beads for 1 hour at 4° C. (insulin receptor trapping) or for 2 h at 4° C. […] Precipitates were collected, washed four times with lysis buffer and resolved on SDS-PAGE, followed by western blotting. Insulin receptor (InsR) was detected using rabbit anti-insulin receptor antibodies (Santa-Cruz, C-19) and GST was detected by mouse anti-GST antibodies (Santa-Cruz).

T1 sequence (P15127 27-1383 limits assumed): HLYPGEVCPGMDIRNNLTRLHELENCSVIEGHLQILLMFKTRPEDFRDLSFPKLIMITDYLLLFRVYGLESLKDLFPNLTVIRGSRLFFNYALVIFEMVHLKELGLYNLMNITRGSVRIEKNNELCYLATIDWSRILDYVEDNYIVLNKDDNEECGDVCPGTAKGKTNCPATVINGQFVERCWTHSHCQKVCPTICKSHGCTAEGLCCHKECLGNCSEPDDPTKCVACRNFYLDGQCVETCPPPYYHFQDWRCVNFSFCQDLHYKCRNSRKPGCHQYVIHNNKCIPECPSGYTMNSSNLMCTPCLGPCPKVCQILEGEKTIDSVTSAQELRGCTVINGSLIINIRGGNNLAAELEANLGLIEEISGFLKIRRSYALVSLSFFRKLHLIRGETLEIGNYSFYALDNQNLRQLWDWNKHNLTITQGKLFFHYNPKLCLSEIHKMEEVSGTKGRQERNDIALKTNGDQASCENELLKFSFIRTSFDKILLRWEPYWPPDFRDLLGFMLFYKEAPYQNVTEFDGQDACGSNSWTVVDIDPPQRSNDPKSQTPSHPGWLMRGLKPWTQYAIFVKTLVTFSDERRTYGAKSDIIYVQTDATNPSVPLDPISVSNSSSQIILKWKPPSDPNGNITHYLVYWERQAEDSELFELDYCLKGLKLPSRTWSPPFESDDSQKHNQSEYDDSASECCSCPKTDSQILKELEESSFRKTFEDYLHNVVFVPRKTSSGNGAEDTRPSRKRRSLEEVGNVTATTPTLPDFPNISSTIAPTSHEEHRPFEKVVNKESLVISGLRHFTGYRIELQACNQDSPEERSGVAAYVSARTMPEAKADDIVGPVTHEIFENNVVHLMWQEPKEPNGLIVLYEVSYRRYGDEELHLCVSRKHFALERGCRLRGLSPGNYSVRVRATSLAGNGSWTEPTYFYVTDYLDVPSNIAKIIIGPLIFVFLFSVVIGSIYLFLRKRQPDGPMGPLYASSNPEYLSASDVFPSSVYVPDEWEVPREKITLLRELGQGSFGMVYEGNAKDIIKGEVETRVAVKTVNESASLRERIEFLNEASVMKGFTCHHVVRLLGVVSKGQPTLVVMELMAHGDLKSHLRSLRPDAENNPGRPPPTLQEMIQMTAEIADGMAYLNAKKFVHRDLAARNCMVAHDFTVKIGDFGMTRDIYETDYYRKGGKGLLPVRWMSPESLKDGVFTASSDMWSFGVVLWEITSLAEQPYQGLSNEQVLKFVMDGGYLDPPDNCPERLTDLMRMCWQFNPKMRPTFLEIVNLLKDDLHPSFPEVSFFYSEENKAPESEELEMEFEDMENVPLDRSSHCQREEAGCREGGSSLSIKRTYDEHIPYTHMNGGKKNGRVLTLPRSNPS

B1: GST-PTP^WT (a fusion of GST with the phosphatase domain I of OST-PTP, rat a.a. 1116-1412) (enzyme)
chain: KELMPYNLWRTHRPIPIHSFRQSYEAKSAHAHQTFFQEFEELKEVGKDQPRLEAEHPDNIIKNRYPHVLPYDHSRVRLTQLPGEPHSDYINANFIPGYSHTQEIIATQGPLKKTLEDFWRLVWEQQVHVIIMLTVGMENGRVLCEHYWPANSTPVTHGHITIHLLAEEPEDEWTRREFQLQHGTEQKQRRVKQLQFTTWPDHSVPEAPSSLLAFVELVQEQVQATQGKGPILVHCSAGVGRTGTFVALLRLLRQLEEEKVADVFNTVYILRLHRPLMIQTLSQYIFLHSCLLNKILE
notes: also called WT OST-PTP; not shown: Glutathione S-transferase (GST) encoded by the vector pGEX 4T3 (Amersham)
binding result: no binding

From patent US20140128320A1 (TRUSTEES OF COLUMBIA UNIVERSITY IN THE CITY OF NEW YORK, published 2014)
